Measured values taken from article PMC6137974, “FZP determines grain size and sterile lemma fate in rice”.

B1: mGCC-box probe (3 repeats) (dsDNA)
DNA 1: CATAAGATACTTGACTCATAAGATACTTGACTCATAAGATACTTGACT
DNA 2: AGTCAAGTATCTTATGAGTCAAGTATCTTATGAGTCAAGTATCTTATG
B2: mDRE probe (3 repeats) (dsDNA)
DNA 1: ATACGTCTTTGACGAGATACGTCTTTGACGAGATACGTCTTTGACGAG
DNA 2: CTCGTCAAAGACGTATCTCGTCAAAGACGTATCTCGTCAAAGACGTAT
B3: GCC-box probe (3 repeats) (dsDNA)
DNA 1: CATAAGAGCCGCCACTCATAAGAGCCGCCACTCATAAGAGCCGCCACT
DNA 2: AGTGGCGGCTCTTATGAGTGGCGGCTCTTATGAGTGGCGGCTCTTATG
B4: DRE probe (3 repeats) (dsDNA)
DNA 1: ATACTACCGACATGAGATACTACCGACATGAGATACTACCGACATGAG
DNA 2: CTCATGTCGGTAGTATCTCATGTCGGTAGTATCTCATGTCGGTAGTAT

How the values were obtained:
FZP (FRIZZY PANICLE) [1] = molecular target: T1, FZP (FRIZZY PANICLE) (Oryza sativa, UniProt Q8H3Q1 1-318); assay: EMSA; 1.5 ug protein; EMSA, 15 ul, 1 ug biotin probe, 0.5-1.5 ug protein, LightShift Chemiluminescent EMSA Kit (Thermo) binding buffer; salt, pH and temperature not stated; details: protein: recombinant; tags: His-SUMO (pET-SUMO); label: 5' biotin; blunt
FZP (FRIZZY PANICLE) [2] = molecular target: T1, FZP (FRIZZY PANICLE); assay: EMSA; 0.5, 1 and 1.5 ug protein; EMSA, 15 ul, 1 ug biotin probe, 0.5-1.5 ug protein, LightShift Chemiluminescent EMSA Kit (Thermo) binding buffer; salt, pH and temperature not stated; details: protein: recombinant; tags: His-SUMO (pET-SUMO); label: 5' biotin; blunt

T1 sequence (Q8H3Q1 whole entry): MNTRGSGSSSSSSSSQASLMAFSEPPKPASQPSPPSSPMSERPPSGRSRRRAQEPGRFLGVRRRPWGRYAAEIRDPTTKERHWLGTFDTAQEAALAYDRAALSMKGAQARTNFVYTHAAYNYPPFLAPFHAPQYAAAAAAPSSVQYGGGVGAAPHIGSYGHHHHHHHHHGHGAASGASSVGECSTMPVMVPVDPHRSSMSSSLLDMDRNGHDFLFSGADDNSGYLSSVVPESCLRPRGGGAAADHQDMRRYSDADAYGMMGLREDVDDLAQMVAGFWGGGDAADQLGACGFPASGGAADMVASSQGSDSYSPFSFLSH

Binder	binding result (FZP (FRIZZY PANICLE) [1])	binding result (FZP (FRIZZY PANICLE) [2])
B1	no binding	
B2	no binding	
B3		binds
B4		binds
